Data: patent publication US20260028418A1 (GC CELL, published 2026)
Numbering of substitutions follows the chain as printed.

T1: HER4 (R&D Systems, #1131-ER-050) (human, UniProt Q15303 26-651)
T1 construct: extracellular domain; Bought
T1 sequence (looked up): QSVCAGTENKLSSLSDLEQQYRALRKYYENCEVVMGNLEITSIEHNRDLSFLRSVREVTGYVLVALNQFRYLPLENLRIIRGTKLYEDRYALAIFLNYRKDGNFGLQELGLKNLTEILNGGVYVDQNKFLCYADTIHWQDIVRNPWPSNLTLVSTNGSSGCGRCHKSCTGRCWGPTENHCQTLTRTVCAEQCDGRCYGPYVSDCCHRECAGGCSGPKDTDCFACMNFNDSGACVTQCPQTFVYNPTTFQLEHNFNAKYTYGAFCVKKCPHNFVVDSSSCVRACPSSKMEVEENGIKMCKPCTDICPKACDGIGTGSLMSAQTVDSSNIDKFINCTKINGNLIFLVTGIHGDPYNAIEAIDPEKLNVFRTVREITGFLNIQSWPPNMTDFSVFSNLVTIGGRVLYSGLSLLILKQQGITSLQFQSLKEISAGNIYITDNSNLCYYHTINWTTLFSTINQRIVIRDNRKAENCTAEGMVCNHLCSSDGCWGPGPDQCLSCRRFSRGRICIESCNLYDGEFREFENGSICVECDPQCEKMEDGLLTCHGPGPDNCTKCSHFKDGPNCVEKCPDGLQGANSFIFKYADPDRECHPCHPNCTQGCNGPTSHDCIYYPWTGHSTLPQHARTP

B1: 24D3 (antibody, V domains shown)
VH: EVKLVESGGGLVKPGGSLKLSCAASGFTFSSCAMSWVRQTPEKRLEWVATISGGGSYTYYPDSVKGRFTISRDNAKNTLYLQMSSLRSEDTAMYYCARHGGYESWFPYWGQGTLVTVSA
VL: DIVMTQSPLSLPVSLGDQASISCRSSQSLVHSNGNTYLHWYLQKPGQSPKLLIYKVSNRFSGVPDRFSGSGSGTDFTLKISRVEAEDLGVYFCSQSTHVPPWTFGGGTKLEIK
B2: hz2G10 (antibody, V domains shown)
VH: EVQLVESGGGLVQPGGSLRLSCAASGFTFSDYYMYWVRQAPGKGLEWVAYINSGGGSTYYPDTVKGRFTISRDNAKNSLYLQMNSLRAEDTAVYYCAREALYDYDYAMDYWGQGTTVTVSS
VL: DIVMTQSPLSLSVTPGQPASISCKSSQSLLYSNGKTYLNWLLQKPGQSPQRLIYLVSKLDSGVPDRFSGSGSGTDFTLKISRVEAEDVGVYYCVQGTHFPLTFGGGTKVEIK
notes: Humanized antibody, detected with anti-human IgG-HRP; Only the variable domains are tied to the name; also called humanized 2G10 antibody
B3: 1G3 (antibody, V domains shown)
VH: EVQLQQSGAELVKPGASVKLSCTASDFNIVDTYMHWVKQRPEQGLEWIGRIDPANGYTRYDPNFQGKATITADTSSNTAYLQLSSLTSEDTAVYYCARYYYGFYAMDYWGQGTTVTVSS
VL: DIVMTQSHKFMSTSVGDRVSITCKASQDVSTAVAWYQQKPGQSPKLLIYSASYRYTGVPDRFTGSGSGTDFTFTISSVQAEDLAVYYCQQHYSTPPTFGGGTKLELK
B4: hz39D2 (antibody, V domains shown)
VH: QVQLVQSGSELKKPGASVKVSCKASGYTFTNYGVNWVRQAPGQGLEWMGWINTHTGEPTYAEEFKGRFVFSLDTSVSTAYLQISSLKAEDTAVYYCARDDYYVRVDYWGQGTTVTVSS
VL: DIQMTQSPSSLSASVGDRVTITCKASQDINSYLSWFQQKPGKAPKTLIYRANRLVDGVPSRFSGSGSGQDYTLTISSLQPEDFATYYCLQYDEFPWTFGQGTKVEIK
notes: Humanized antibody, captured as IgG by anti-human IgG in SPR; also called humanized 39D2 antibody
B5: hz39D2.22 (antibody, V domains shown)
VH: B4 VH with D100E
VL: B4 VL with Q90E, Y91L
B6: hz39D2.14 (antibody, V domains shown)
VH: B4 VH with D100E, V105T
VL: B4 VL
B7: hz39D2.23 (antibody, human IgG1, kappa, V domains shown)
VH: B4 VH with D100E
VL: DIQMTQSPSSLSASVGDRVTITCKASQDINSYLSWFQQKPGKAPKTLIYRANRLVDGVPSRFSGSGSGQDYTLTISSLQPEDFATYYCLQLDEFPWTFGQGTKVEIKR

target: T2, HER2-ECD-Fc (human, UniProt P04626 23-652); experiment: ELISA on HER2-ECD-Fc; antibody at 5 µg/mL
T2 construct: extracellular domain; Produced in FreeStyle 293F cells; also called HER2-ECD Fc fusion protein

absorbance	Binder
2.92	B1
2.79	B2
2.81	B3
2.9	B4

target: T2, HER2-ECD-Fc; experiment: ELISA on HER2-ECD-Fc; antibody at 50 µg/mL

absorbance	Binder
2.75	B1
2.81	B2
2.76	B3
2.83	B4

target: T2, HER2-ECD-Fc; experiment: ELISA on HER2-ECD-Fc; antibody at 5 × 10^-1 µg/mL

absorbance	Binder
2.9	B1
2.69	B2
2.78	B3
2.78	B4

target: T2, HER2-ECD-Fc; experiment: ELISA on HER2-ECD-Fc; antibody at 5 × 10^-2 µg/mL

absorbance	Binder
2.76	B1
1.16	B2
2.79	B3
2.92	B4

target: T2, HER2-ECD-Fc; experiment: ELISA on HER2-ECD-Fc; antibody at 5 × 10^-3 µg/mL

absorbance	Binder
1.13	B1
0.22	B2
1.77	B3
2.29	B4

target: T2, HER2-ECD-Fc; experiment: ELISA on HER2-ECD-Fc; antibody at 5 × 10^-4 µg/mL

absorbance	Binder
0.22	B1
0.12	B2
0.35	B3
0.47	B4

target: T2, HER2-ECD-Fc; experiment: ELISA on HER2-ECD-Fc; antibody at 5 × 10^-5 µg/mL

absorbance	Binder
0.12	B1
0.12	B2
0.14	B3
0.15	B4

target: T2, HER2-ECD-Fc; experiment: ELISA on HER2-ECD-Fc; antibody at 5 × 10^-6 µg/mL

absorbance	Binder
0.11	B1
0.12	B2
0.11	B3
0.12	B4

target: T2, HER2-ECD-Fc; experiment: ELISA on HER2-ECD-Fc; antibody at 5 × 10^-7 µg/mL

absorbance	Binder
0.11	B1
0.12	B2
0.11	B3
0.12	B4

target: T3, HER2-ECD-His (human, UniProt P04626 23-652); experiment: SPR (Biacore, CM5), IgG captured by anti-human IgG, HER2-ECD-His as analyte
T3 construct: extracellular domain; also called HER2-His; HER2-ECD-His protein; not shown: His tag
Description: 2000 RU of goat anti-human IgG (Invitrogen, #H10500) was immobilized onto a CM5 sensor chip by […]. Then, the antibodies were allowed to bind at a rate of 50 μL/min for 5 minutes and then stabilized for 5 minutes by flowing a buffer. After stabilizing the antibodies, the HER2-ECD-His protein was allowed to bind at a rate of 50 μL/min for 4 minutes and then separated by flowing a buffer for 15 minutes. After analyzing the concentration, the resultant was recycled using 10 mM glycine (pH 1.5) and then subjected to the subsequent assay. The affinity of the antibodies was analyzed using the BIAevaluation software.

Kd	koff	kon	Binder
37 nM	0.0025 s⁻¹	68000 M⁻¹ s⁻¹	B4
2 nM	0.00016 s⁻¹	81000 M⁻¹ s⁻¹	B5
8 nM	0.0003 s⁻¹	37000 M⁻¹ s⁻¹	B6
2.8 nM	0.0002 s⁻¹	71000 M⁻¹ s⁻¹	B7

target: T4, EGFR-ECD-Fc (human, UniProt P00533 25-645); experiment: ELISA on ErbB family extracellular domains, Absorbance at 450 nm; antibody concentration not given
T4 construct: extracellular domain; also called extracellular domain of EGFR; not shown: Hinge and Fc region (CH2-CH3) of human IgG1; The protein was produced in the same manner as HER2-ECD-Fc
From the text: (§1) It was investigated whether the developed five antibodies of the present disclosure specifically bind to HER2 belonging to the ErbB family proteins by ELISA.

binding result	Binder
no binding	B1
no binding	B2
no binding	B3
no binding	B4

target: T5, HER3 (R&D Systems, #348-RB-050) (human, UniProt P21860 20-643); experiment: as above
T5 construct: extracellular domain; Bought
From the text: as §1

binding result	Binder
no binding	B1
no binding	B2
no binding	B3
no binding	B4

target: T1, HER4 (R&D Systems, #1131-ER-050); experiment: as above
From the text: as §1

binding result	Binder
no binding	B1
no binding	B2
no binding	B3
no binding	B4

target: T6, HER2-ECD DI Fc (human, UniProt P04626 23-217, limits assumed); experiment: ELISA on plate-coated HER2 domain-Fc fusion (1 µg/mL), anti-human IgG-HRP, Abs 450 nm; antibody concentration not given
T6 construct: domain: domain 1; also called domain 1 of the extracellular domains of the HER2 protein; not shown: Hinge and Fc region (CH2-CH3) of human IgG1, at the C-terminus
Description: (§2) The HER2-ECD DI Fc, HER2-ECD DII Fc, HER2-ECD DIII Fc, HER2-ECD DIV Fc and HER2-ECD Fc fusion proteins were immobilized at 4° C. overnight onto a Costar 96-well plate (Corning, Cat. No. 3590) at a concentration of 1 μg/mL […]. The resultant was washed 3 times with TBS-T (0.05% Triton X-100) and then blocked at room temperature for 1 hour with 100 μL of TBS-T/BSA (5% BSA). After washing the blocked plate 3 times and adding the anti-HER2 antibody, the antibody was allowed to bind at room temperature for 1 hour. After washing 3 times and then adding anti-human IgG-HRP diluted to 1:3,000 in TBS-T/BSA, as a secondary antibody, the antibody was allowed to bind at room temperature for 1 hour. After washing the resultant 3 times and adding TMB (SurModics, Cat. No. TMBC-1000-01), the mixture was allowed to develop color at room temperature for 5 minutes. Then, the color development was stopped by adding 1 N sulfuric acid (DukSan, Cat. No. 254). Absorbance was measured at 450 nm using Victor X3 (PerkinElmer, Cat. No. 2030-0030).

binding result	Binder
no binding	B1
no binding	B3

target: T7, HER2-ECD DIII Fc (human, UniProt P04626 342-510, limits assumed); experiment: as above
T7 construct: domain: domain 3; also called domain 3 of the extracellular domains of the HER2 protein; not shown: Hinge and Fc region (CH2-CH3) of human IgG1, at the C-terminus
Description: as §2

binding result	Binder
no binding	B2
no binding	B3
no binding	B4
